Reference: paper PMC3637229, “Differential Translation of Dazap1 Transcripts during Spermatogenesis”

T1: His-DAZL (Mus musculus, UniProt Q64368 1-298)
T1 sequence: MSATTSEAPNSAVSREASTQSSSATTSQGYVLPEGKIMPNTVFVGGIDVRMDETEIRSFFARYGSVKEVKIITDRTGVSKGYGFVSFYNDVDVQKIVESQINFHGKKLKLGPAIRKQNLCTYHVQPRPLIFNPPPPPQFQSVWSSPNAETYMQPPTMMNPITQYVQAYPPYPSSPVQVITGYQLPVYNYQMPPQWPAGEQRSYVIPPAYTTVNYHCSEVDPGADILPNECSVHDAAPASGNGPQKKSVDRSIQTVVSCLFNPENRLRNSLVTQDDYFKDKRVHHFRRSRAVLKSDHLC

B1: Dazap1 3'UTR C region (ssRNA)
RNA: AGGGUUUAAAAAACGCCUUCAGCUUUAAUUCAGAAUUUCAGGUUUCUUUUUCUUCUUCCUUUUUUUUCCUUUUUUUGAGAUUAUUUUCUUGAGCCUUUUGUUUUAUGGUAUAUUGUAAACUUUUAUGUUAAAGAAAAAAUAUACAUUUACAAAUUGUGAGAUUUUUAAGAGAAAUUUUCUACAAUGUAUACUGGCUUAUUUUUUAAUUUAAAGCAGGGUUCGGGUG

Key:
His-DAZL [1] = target: T1, His-DAZL; test: EMSA; heparin, yeast tRNA; EMSA: 1 ug DAZL in 10 ul, 20 mM Tris pH 7.4, 2.5 mM MgCl2, 60 mM KCl, 1 mM DTT, 5% glycerol, RT, then 5 mg/ml heparin + 0.5 mg/ml yeast tRNA; pull-down: 20 mM Tris-HCl pH 7.4, 2.5 mM MgCl2, 120 mM KCl, 1 mM DTT, 5% glycerol, RT, 5 mg/ml heparin; settings: protein: recombinant; tags: His (pET-28a); label: 32P (gel shift)
His-DAZL [2] = target: T1, His-DAZL; test: competition; cold C_40 1, 5, 10 ng vs labeled CU_40; EMSA: 1 ug DAZL in 10 ul, 20 mM Tris pH 7.4, 2.5 mM MgCl2, 60 mM KCl, 1 mM DTT, 5% glycerol, RT, then 5 mg/ml heparin + 0.5 mg/ml yeast tRNA; pull-down: 20 mM Tris-HCl pH 7.4, 2.5 mM MgCl2, 120 mM KCl, 1 mM DTT, 5% glycerol, RT, 5 mg/ml heparin; settings: protein: recombinant; tags: His (pET-28a)

Binder	binding result (His-DAZL [1])	binding result (His-DAZL [2])
B1	binds	
AGGUUUCUUUUUCUUCUUCCUUUUUUUUCCUUUUUUUGAG (ssRNA) [CU_40]	binds	
AGGGUUUAAAAAACGCCUUCAGCUUUAAUUCAGAAUUUCAGGU (ssRNA) [C_40]		no binding
